Assay results as given in article PMC8561734, “Structural basis for SdgB- and SdgA-mediated glycosylation of staphylococcal adhesive proteins” (Acta Crystallographica. Section D, Structural Biology, 2021).
Where no end group is shown, it is not given here. The star is where a group is joined. βGlcNAc = CC(=O)N[C@@H]1[C@@H](O)[C@H](O)[C@@H](CO)O[C@H]1*

B4: SdgB (glycosyltransferase, Staphylococcus aureus USA300) (enzyme)
chain: MNYFVGNSLGVNLTGIEKAIINRLNLFKEMGRPAQCVFLSWNRYLYRNAQNYITSSDYINMYDFFQEATYLERNEPFDWLSYWTDECHYTLKHVENSHDFRIYDQERFLMYAHFQDPKYRILDYVNHFDSQRRKVKRDFYDVRGFLSCSRILVDKQQTLCEFFYNPEGDTKLEKYFSYKDGKPEVQKIIVYYANKQYFFNNETELGAFFIKQLYQHGDLFFSDRNVYTAPIFNLTPESIPVVAVLHSTHIKNIDALDSSPFKNVYKAMFENLSRYRAIIVSTEQQKLDVEKRINHTIPVVNIPVGYSETIDTPVQTLDQRSVKLISVARYSPEKQLHQQIELIKRLVSYVPKIELHMYGFGSESKKLNELIQKYGLENHVYLRGFLSNLDQEYSDAYLSLITSNMEGFSLALLESLAHGVPVISYDIKYGPNELITSDFNGYLITKNDEDALFDKVKYVIDHPEVQQRLSKGSLAKAQQYSKASLIKQWDQFVRLI
notes: SdgB, O-GlcNAc glycosyltransferase of S. aureus strain USA300, gene SAUSA300_0550, cloned into pET-21a(+); theoretical monomer mass 59.5 kDa; A selenomethionine-substituted form was used only for phasing; also called SdgB_(quaternary); source: E. coli Rosetta 2(DE3)pLysS, purified (HiTrap Chelating, HiTrap Q, Superdex 200)

Assays:
SdgB [1] = target: T1, SdgB (Staphylococcus aureus, UniProt A0A0H2XGN0); assay: X-ray crystallography; settings: donor-binding site, closed form
T1 construct: gene SAUSA300_0550; full-length, C-terminal His6 tag (pET-21a), E. coli Rosetta 2(DE3)pLysS; residues 1-496 compared

[2] = target: SdgA (glycosyltransferase, Staphylococcus aureus USA300) (Staphylococcus aureus (strain USA300)); assay: AUC; sedimentation equilibrium; SdgB 1 µM, SdgA 4.5 µM; 20 mM HEPES pH 7.5, 150 mM NaCl, 1 mM MgCl2; 9000 and 15 000 rev/min; global fit to a monomer–dimer self-association model (dimer to monomers)
[3] = target: SdgA (glycosyltransferase, Staphylococcus aureus USA300) (Staphylococcus aureus (strain USA300)); assay: AUC; sedimentation velocity; SdgA at 4.5 µM; 30 000 rev/min
SdgB [4] = target: T1, SdgB; assay: MALDI-MS O-GlcNAcyltransferase assay; assay type: biochemical; settings: 10 mM donor; acceptor DSD or DSDSD 3 mM, 5 uM enzyme, 20 mM HEPES pH 7.5, 150 mM NaCl, 1 mM MgCl2, 37 C, 2 h
[5] = target: B4; assay: crystal structure; SdgB crystal (20 mM CaCl2, 85 mM trisodium citrate pH 5.6, 25.5% PEG 4000, 15% glycerol) soaked with 2.66 mM 9-mer SD-repeat peptide and 9.60 mM UDP-GlcNAc for 7.5 h; settings: both partners purified
[6] = target: B4; assay: crystal structure; SdgB crystal (0.2 M MgCl2, 0.1 M Tris–HCl pH 8.5, 25% PEG 3350) quick-soaked with 6.14 mM UDP and 2.45 mM 5-mer peptide DSDSD for 30 min; settings: both partners purified
[7] = target: B4; assay: SPR; SdgB immobilised on a PEG-based sensor chip (1062 RU); SdgA 0.39–25.0 µM as analyte; HBS-EP (10 mM HEPES pH 7.4, 150 mM NaCl, 0.03 mM EDTA, 0.005% Tween 20); 20°C; kinetic fit with Scrubber2; settings: both partners purified
[8] = target: T2, SdgB (glycosyltransferase, Staphylococcus aureus USA300) (Staphylococcus aureus (strain USA300), UniProt A0A0H2XGN0 1-496); assay: SPR
T2 chain: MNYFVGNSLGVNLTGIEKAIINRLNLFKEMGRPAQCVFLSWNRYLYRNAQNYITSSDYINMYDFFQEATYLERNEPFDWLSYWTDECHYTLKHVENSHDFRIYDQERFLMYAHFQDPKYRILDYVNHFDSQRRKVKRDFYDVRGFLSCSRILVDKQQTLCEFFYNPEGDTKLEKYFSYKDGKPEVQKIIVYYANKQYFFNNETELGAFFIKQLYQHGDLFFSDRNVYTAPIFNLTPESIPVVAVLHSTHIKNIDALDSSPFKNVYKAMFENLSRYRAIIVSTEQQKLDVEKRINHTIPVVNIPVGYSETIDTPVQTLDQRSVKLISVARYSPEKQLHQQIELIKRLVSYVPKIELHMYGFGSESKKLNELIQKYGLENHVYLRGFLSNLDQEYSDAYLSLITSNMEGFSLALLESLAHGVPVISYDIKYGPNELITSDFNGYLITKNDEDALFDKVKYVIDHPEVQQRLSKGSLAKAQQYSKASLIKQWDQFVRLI

[9] = target: the molecule itself; assay: AUC; sedimentation equilibrium; SdgB 1 µM, SdgA 4.5 µM; 20 mM HEPES pH 7.5, 150 mM NaCl, 1 mM MgCl2; 9000 and 15 000 rev/min; global fit to a monomer–dimer self-association model (dimer to monomers)
[10] = target: the molecule itself; assay: SEC-MALS; SdgB 0.22 mg injected; Superdex 200 Increase 10/300 GL; 20 mM Tris–HCl pH 7.5, 200 mM NaCl; 0.5 ml/min

With O=c1ccn([C@@H]2O[C@H](COP(=O)(O)OP(=O)(O)O)[C@@H](O)[C@H]2O)c(=O)[nH]1 [UDP] the X-ray crystallography (SdgB [1]; complex with cleaved GlcNAc and diGlcNAcylated 9-mer, 2.5 A, also seen with DSDSD in a second structure (7VFM)) was “distinct electron density for UDP and GlcNAc was observed in the cleft”.

Work on “SdgA (glycosyltransferase, Staphylococcus aureus USA300) (from UniProt A0A0H2XI10 1-490) (enzyme)” yielded a Kd [2] of 14100 nM and a stoichiometry N [3] of 2.

CC(=O)N[C@H]1C(O)O[C@H](CO)[C@@H](O)[C@@H]1O (some centres unmarked) [GlcNAc] was tested, and the X-ray crystallography (SdgB [1]; cleaved from soaked UDP-GlcNAc, with UDP and diGlcNAcylated 9-mer) was “distinct electron density for UDP and GlcNAc was observed in the cleft”.

With CC(=O)N[C@H]1[C@@H](OP(=O)(O)OP(=O)(O)OC[C@H]2O[C@@H](n3ccc(=O)[nH]c3=O)[C@H](O)[C@@H]2O)O[C@H](CO)[C@@H](O)[C@@H]1O [UDP-GlcNAc] the “MALDI-MS O-GlcNAcyltransferase assay” value (SdgB [4]) was “converted into mono-GlcNAcylated forms by SdgB but not by SdgA”.

B1: diGlcNAcylated 9-mer SD-repeat peptide (DSDSDSDSD) (peptide)
peptide: DSDS(βGlcNAc)DSDS(βGlcNAc)D
notes: serine–aspartate repeat as in the SDR domains of staphylococcal SDR proteins (ClfA and others); no one parent protein is named; Asp1 not modelled in the structure; The peptide was added unmodified; also called GlcNAcylated SD-repeat peptide (9-mer); O-GlcNAcylated SDR peptide (9-mer); source: 9-mer peptide soaked into the SdgB crystal with UDP-GlcNAc and glycosylated in the crystal
B1: binds [5].

B2: 5-mer SD-repeat peptide Asp-Ser-Asp-Ser-Asp (DSDSD) (peptide)
peptide: DSDSD
notes: serine–aspartate repeat as in the SDR domains of staphylococcal SDR proteins (ClfA and others); no one parent protein is named; only SDSD was modelled in the structure; also called 5-mer SDR peptide; source: synthetic peptide
B2: binds [6].

B3: SdgA (glycosyltransferase, Staphylococcus aureus USA300) (enzyme)
chain: MNYILGTILESKITGVEKAQINRLKLFKQHGISSKCVYVKWNPYSYTYAKQHQIENDVFTMYDYFQKAINYKKTKQVNWIQYWEKSCRYTLKFVENSNDVRIYDEEQFVMYAHFLDKQYHQLNYVNYFDHKRRKVKRELYDGRGFLSCSRILGEGQRIVLENYYTPNGEIVIQKYFDDIKGKNTLTKVILNEDQHQQFFDTEDELVQYFLHQLCKNNDQIILDRPHELGNVIAGLNQSIPVIVVLHSTHLSGAGNGIKSFYKTVFNNLTRYKAIVVSTEKQCQDISQYIENKIPVINIPVGYVANLKYQFDINQKEKNHIISIARLVENKQIKHQIEVIKQLVTKHPNIQLNIYGHGNGLSEYRQLVEDYHLSEHVKFHGFKTHINEEIAKAELMLSTSKMEGFGLAILESLSVGTPVISYDVDYGPSELIQDGFNGYLVPQGDINQMVEKVDQLLNNTQKLQQFSINSIESAQQYNATTISTKWQNILN
notes: SdgA, glycosyltransferase of S. aureus strain USA300, gene SAUSA300_0549, cloned into pET-21a(+); theoretical monomer mass 60.4 kDa; source: E. coli Rosetta 2(DE3)pLysS, purified (HiTrap Chelating, HiTrap Q, Superdex 200)
B3 gave a Kd [7] of 393 nM and a koff [8] of 0.000496 s⁻¹.

B4 was tested, and the Kd [9] was 926 nM and the “stoichiometry N” value [10] was 2.
